Article PMC6510727
“And” between values parts separate entries of the source, which are not always exact repeats. Equal entries are not always repeated.

Assays:
[1] = target: PDE catalytic subunit (PDEα or PDEβ) of frog rod PDE (frog (Rana catesbeiana)); experiment: PDE activity on dilution (pH assay), fitted with equation (s5); purified PDE at diluted low concentrations (≤40 nM), in the light without GTP, 5 mM cGMP, room temperature; relative to trypsin-treated full activity
[2] = target: PDE catalytic subunit (PDEα or PDEβ) of frog rod PDE (frog (Rana catesbeiana)); experiment: PDE activity on dilution (pH assay), fitted with equation (s5); frog ROS membranes at various concentrations of PDE (≤40 nM; PDE/rhodopsin taken as 1/270), in the light without GTP, 5 mM cGMP, room temperature
[3] = target: PDE catalytic subunit (PDEα or PDEβ) of frog rod PDE (frog (Rana catesbeiana)); experiment: co-purification (Mono Q, Superdex 200) with SDS-PAGE quantification; native PDE purified from frog ROS membranes to almost 100% purity; subunits quantified on Oriole-stained gels with bovine serum albumin as molar standard

Kd [1]: 0.01 nM and 0.005 to 0.02 nM
Kd [2]: 0.04 to 0.06 nM and 0.054 nM
molar ratio of 2PDEγ/PDEαβ [3]: 1.01
Substance: native PDEγ of frog rod PDE (freed reversibly from the catalytic subunit) (from UniProt H1AAN5 1-87) (natural protein)
